Measurements: paper PMC8044140 (Communications Biology, 2021)

Experiments:
[1] = target: T1, PefR (holo-PefR, ferrous heme-bound) (Streptococcus agalactiae, UniProt R4Z9I5); assay type: binding
T1 construct: gene AX245_08385; recombinant holo-PefR, homodimer
T1 sequence (R4Z9I5 1-146): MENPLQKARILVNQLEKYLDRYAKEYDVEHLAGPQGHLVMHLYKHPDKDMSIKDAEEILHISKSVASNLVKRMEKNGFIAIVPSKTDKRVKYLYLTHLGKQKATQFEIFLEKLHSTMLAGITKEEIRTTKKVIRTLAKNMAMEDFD

[2] = target: PefR (porphyrin-regulated efflux regulator) from Streptococcus agalactiae, non-His-tagged (Streptococcus agalactiae); assay: SEC; gel filtration of purified apo-PefR (heme-free); single peak, estimated ~35 kDa against ca. 17 kDa for the monomer
[3] = target: PefR (porphyrin-regulated efflux regulator) from Streptococcus agalactiae, non-His-tagged (Streptococcus agalactiae); assay: SEC; gel filtration of holo-PefR (heme-bound)
[4] = target: T2, PefR (porphyrin-regulated efflux regulator) (Streptococcus agalactiae, UniProt R4Z9I5); assay: biochemical; assay type: binding
T2 construct: gene AX245_08385; recombinant PefR, C-terminal His tag removed with HRV3C protease; homodimer, two hemes per dimer
T2 sequence (R4Z9I5 1-146): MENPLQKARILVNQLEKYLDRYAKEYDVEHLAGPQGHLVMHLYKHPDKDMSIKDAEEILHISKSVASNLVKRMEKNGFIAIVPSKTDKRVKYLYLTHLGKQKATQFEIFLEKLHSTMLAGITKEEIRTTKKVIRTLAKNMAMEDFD

[5] = target: T3, PefR (Streptococcus agalactiae, UniProt Q8E4J9 1-146); assay: EMSA; apo (heme-free); EMSA: 20 mM Tris-HCl pH 7.4, 50 mM KCl, 5% glycerol, 0.2 M MgCl2, room temperature; FP: 40 mM HEPES/Na pH 7.4, 500 mM NaCl, 10% glycerol, 10 nM DNA, room temperature; details: protein: recombinant; tags: C-terminal HRV3C site-6xHis, His tag removed by HRV3C protease (site remnant remains); chain copies: 2; label: 5'-FAM on antisense strand; blunt
T3 sequence: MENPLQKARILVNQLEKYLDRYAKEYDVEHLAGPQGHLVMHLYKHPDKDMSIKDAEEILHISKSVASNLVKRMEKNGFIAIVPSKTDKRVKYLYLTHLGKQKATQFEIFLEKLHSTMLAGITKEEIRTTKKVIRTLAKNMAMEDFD

[6] = target: T3, PefR; assay: X-ray crystallography; apo (heme-free), 2.5 A; EMSA: 20 mM Tris-HCl pH 7.4, 50 mM KCl, 5% glycerol, 0.2 M MgCl2, room temperature; FP: 40 mM HEPES/Na pH 7.4, 500 mM NaCl, 10% glycerol, 10 nM DNA, room temperature; details: protein: recombinant; tags: C-terminal HRV3C site-6xHis, His tag removed by HRV3C protease (site remnant remains); chain copies: 2; blunt
[7] = target: T3, PefR; assay: fluorescence polarization; apo (heme-free); 1:1 dimer:dsDNA; 500 mM NaCl; EMSA: 20 mM Tris-HCl pH 7.4, 50 mM KCl, 5% glycerol, 0.2 M MgCl2, room temperature; FP: 40 mM HEPES/Na pH 7.4, 500 mM NaCl, 10% glycerol, 10 nM DNA, room temperature; details: protein: recombinant; tags: C-terminal HRV3C site-6xHis, His tag removed by HRV3C protease (site remnant remains); chain copies: 2; label: 5'-FAM on antisense strand; blunt
[8] = target: PefR H114A (Streptococcus agalactiae, UniProt Q8E4J9 1-146, H114A); assay: fluorescence polarization; apo (heme-free); 1:1 dimer:dsDNA; EMSA: 20 mM Tris-HCl pH 7.4, 50 mM KCl, 5% glycerol, 0.2 M MgCl2, room temperature; FP: 40 mM HEPES/Na pH 7.4, 500 mM NaCl, 10% glycerol, 10 nM DNA, room temperature; details: protein: recombinant; tags: C-terminal HRV3C site-6xHis, removed; chain copies: 2; label: 5'-FAM on antisense strand; blunt
[9] = target: PefR R89A (Streptococcus agalactiae, UniProt Q8E4J9 1-146, R89A); assay: EMSA; apo; 1:1 dimer:DNA, 5 uM; EMSA: 20 mM Tris-HCl pH 7.4, 50 mM KCl, 5% glycerol, 0.2 M MgCl2, room temperature; FP: 40 mM HEPES/Na pH 7.4, 500 mM NaCl, 10% glycerol, 10 nM DNA, room temperature; details: protein: recombinant; tags: C-terminal HRV3C site-6xHis, removed; chain copies: 2; label: 5'-FAM on antisense strand; blunt
[10] = target: PefR K53A (Streptococcus agalactiae, UniProt Q8E4J9 1-146, K53A); assay: EMSA; apo; 1:1 dimer:DNA, 5 uM; similar to WT; EMSA: 20 mM Tris-HCl pH 7.4, 50 mM KCl, 5% glycerol, 0.2 M MgCl2, room temperature; FP: 40 mM HEPES/Na pH 7.4, 500 mM NaCl, 10% glycerol, 10 nM DNA, room temperature; details: protein: recombinant; tags: C-terminal HRV3C site-6xHis, removed; chain copies: 2; label: 5'-FAM on antisense strand; blunt
[11] = target: PefR S62A (Streptococcus agalactiae, UniProt Q8E4J9 1-146, S62A); assay: as above; details: protein: recombinant; tags: C-terminal HRV3C site-6xHis, removed; chain copies: 2; label: 5'-FAM on antisense strand; blunt
[12] = target: PefR K75A (Streptococcus agalactiae, UniProt Q8E4J9 1-146, K75A); assay: as above; details: protein: recombinant; tags: C-terminal HRV3C site-6xHis, removed; chain copies: 2; label: 5'-FAM on antisense strand; blunt
[13] = target: PefR K63A (Streptococcus agalactiae, UniProt Q8E4J9 1-146, K63A); assay: as above; details: protein: recombinant; tags: C-terminal HRV3C site-6xHis, removed; chain copies: 2; label: 5'-FAM on antisense strand; blunt
[14] = target: PefR S67A (Streptococcus agalactiae, UniProt Q8E4J9 1-146, S67A); assay: as above; details: protein: recombinant; tags: C-terminal HRV3C site-6xHis, removed; chain copies: 2; label: 5'-FAM on antisense strand; blunt

Molecule: [C-]#[O+] [carbon monoxide]
- Kd [1]: 0.11 and 0.033 μM

Molecule: PefR (porphyrin-regulated efflux regulator) from Streptococcus agalactiae, non-His-tagged (natural protein)
- stoichiometry N [2]: 2
- stoichiometry N [3]: 2

Molecule: C=CC1=C(C)C2=Cc3c(C=C)c(C)c4[n]3[Fe][n]3c(c(C)c(CCC(=O)O)c3=CC3=NC(=C4)C(C)=C3CCC(=O)O)=CC1=N2 [heme]
- Kd [4]: 610 nM

B1: nontarget DNA (dsDNA)
DNA 1: GTTTTAAAACGACCTCTGTAGCGGTCGTTAAAGG
DNA 2: CCTTTAACGACCGCTACAGAGGTCGTTTTAAAAC
- binding result [5]: no binding

B2: pefRCD operator for crystal (dsDNA)
DNA 1: TAAAATAGTTCTCACGATAACTATTAAAT
DNA 2: ATTTAATAGTTATCGTGAGAACTATTTTA
- binding result [6]: binds

B3: pefRCD operator 28 bp (EMSA) (dsDNA)
DNA 1: TAAAATAGTTCTCACGATAACTATTAAA
DNA 2: TTTAATAGTTATCGTGAGAACTATTTTA
- binding result [5]: binds

B4: pefAB operator 38 bp (dsDNA)
DNA 1: GCTATTATAAAATAGTTCTCACGATAACTAAAATAATG
DNA 2: CATTATTTTAGTTATCGTGAGAACTATTTTATAATAGC
- Kd [7]: 40 nM
- Kd [8]: ~25 nM

B5: target DNA (operon not stated) (dsDNA)
DNA 1: TAAAATAGTTCTCACGATAACTATTAAA
DNA 2: TTTAATAGTTATCGTGAGAACTATTTTA
- binding result [9]: no binding
- binding result [10]: binds
- binding result [11]: binds
- binding result [12]: binds
- binding result [13]: binds
- binding result [14]: binds
